Measurements taken from patent US20110091971A1, “Differentiation of Pluripotent Stem Cells” (priority 2008, published 2011).

Test system: H1 or H9 human embryonic stem cells
Assay: Activin A bioassay: differentiation of human embryonic stem cells to definitive endoderm, cell number and SOX17 intensity by high content analysis (96-well, four days);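 on Cell Number average: Raw total cell count per well from high content imaging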;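 on Sox 17 Intensity average: total fluorescence of the cell multiplied by cell area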
Type: cell-based
Conditions: for Sox 17 Intensity % of control: control = R&D Sys Activin A 100 ng/ml on same plate
Method in brief: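 Read-out was cell count and integrated SOX17 immunofluorescence by high-content imaging, with each well divided by the mean of the 100 ng/ml activin A control. Over the four-day culture, test samples were given in DMEM:F12 with 0.5% FCS plus 20 ng/ml Wnt3a for the first two days and in 2% FCS alone for the last two. Cells were H1 or H9 hESC clusters grown on Matrigel.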

[1] = supernatant concentration 10x, assay dilution 1:20, assay plates #007, #009, #010
[2] = supernatant concentration 10x, assay dilution 1:20
[3] = supernatant concentration 1x, assay dilution 1:20
[4] = supernatant concentration 10x, assay dilution 1:40

| Molecule | Cell Number average [1] | Sox 17 Intensity average [1] | Sox 17 Intensity % of control [2] [%] | also measured |
| --- | --- | --- | --- | --- |
| ACTN50: activin A variant peptide, SEQ ID 51 (protein) GLECDGKVNICCKKQLFGRTKDIGWNDWIIAPSGYHGGGCSGECPSHIAGTSGSSLSFHSTVINHYRMRGHSPVANLKSCCSPTKLRPMSMLYYDDGQNIIKKDIQNMKVEECGCT | 22171 | 1.72E+07 | 12.2 |  |
| ACTN56: activin A variant peptide, SEQ ID 57 (protein) GLECDGKVNICCKKQSFGQAKDIGWNDWIIAPSGYHGGSCTGECPSHIAGTSGSSLSFHSTVINHYRMRGHSPFANLKSCCAPTKLRPMSMLYYDDGQNIIKKDIQNMVVEECGCV | 23413 | 2.79E+07 | 19.8 |  |
| ACTN51: activin A variant peptide, SEQ ID 52 (protein) GLECDGKVNICCKKQSFGQTKDIGWNDWIIAPSGYHGGGCSGECPSHIAGTSGSSLSFHSTVINHYRMRGHSPFANLKSCCSPTKLRPMSMLYYDDGQNIIKKDIQRMVVEECGCT | 21780 | 1.85E+07 | 13.1 |  |
| ACTN69: activin A variant peptide, SEQ ID 70 (protein) GLECDGKVNICCKKQSFGKTKDIGWNDWIIAPSGYHGGGCTGECPSHIAGTSGSSLSFHSTVINHYRMRGHSPFANLKSCCSPTKLRPMSMLYYDDGQNIIKKDIQQMVVEECGCT | 20178 | 2.73E+07 | 19.4 |  |
| ACTN65: activin A variant peptide, SEQ ID 66 (protein) GLECDGKVNICCKKQSFGQTKDIGWNDWIIAPSGYHGGSCSGECPSHIAGTSGSSLSFHSTVINHYRMRGHSPFANLKSCCSPTKLRPMSMLYYDDGQNIIKKDIQGMKVEECGCT | 22058 | 3.23E+07 | 22.9 |  |
| ACTN6: activin A variant peptide, SEQ ID 7 (protein, Sytnthetic Construct) GLECDGKVNLCCKKQWFVSFKDIGWNDWIIAPSGYHANRCSGKCPSHIAGTSGSSLSFHSTVINHYRMRGHSPFADMGACCIPTKLRPMSMLYYDDGQNIIKKDIQNMIVEECGCS |  |  | 12.4 | Cell Number average [3]: 939; Sox 17 Intensity average [3]: 1.234E+07; Sox 17 Intensity % of control [3]: 6.7%; Cell Number average [2]: 2359; Sox 17 Intensity average [2]: 2.272E+07; Cell Number average [4]: 1790; Sox 17 Intensity average [4]: 1.426E+07; Sox 17 Intensity % of control [4]: 7.8% |
| ACTN46: activin A variant peptide, SEQ ID 47 (protein) GLECDGKVNLCCKKQNFVSFKDIGWNDWIIAPSGYHANECGGLCPSHIAGTSGSSLSFHSTVINHYRMRGHSPHANRGACCIPTKLRPMSMLYYDDGQNIIKKDIQNMIVEECGCS | 20757 | 1.99E+07 | 14.1 |  |
| ACTN49: activin A variant peptide, SEQ ID 50 (protein) GLECDGKVNLCCKKQDFVSFKDIGWNDWIIAPSGYHANRCDGLCPSHIAGTSGSSLSFHSTVINHYRMRGHSPFSDMGSCCVPTKLRPMSMLYYDDGQNIIKKDIQNMIVEECGCS | 10076 | 1.60E+07 | 11.3 |  |
